This passage reports normalised SPOT signal, Boehringer light units (BLU); mean over the file's lines of this peptide results from PMC314469, “Protein Interaction Networks by Proteome Peptide Scanning” (PLoS Biology, 2004).

What all share (test): SPOT array
The target of assay [1] is T1, Boi2 SH3 (BOI2_YEAST), P39969.
T1 chain: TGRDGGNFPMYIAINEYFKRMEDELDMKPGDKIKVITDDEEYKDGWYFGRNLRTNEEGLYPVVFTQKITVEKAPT

Assay [2] deals with T2, Myo5 SH3 (MYO5_YEAST), Q04439.
T2 chain: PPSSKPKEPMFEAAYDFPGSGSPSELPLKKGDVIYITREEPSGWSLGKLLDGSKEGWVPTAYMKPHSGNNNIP

Assay [3] deals with T3, Boi1 SH3 (BOI1_YEAST), P38041.
T3 chain: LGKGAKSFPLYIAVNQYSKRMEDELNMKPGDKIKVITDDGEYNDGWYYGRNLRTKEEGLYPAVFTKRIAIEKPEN

Assay [4] has as its target T4, Yfr024 SH3 (LSB3_YEAST), P43603.
T4 chain: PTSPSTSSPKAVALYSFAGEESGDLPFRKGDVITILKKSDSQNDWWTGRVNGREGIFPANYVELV

Assay [5] addresses Sho1 SH3 (SHO1_YEAST), P40073.
Assay [6] has as its target T5, Yhr016c SH3 (YSC84_YEAST), P32793.
T5 chain: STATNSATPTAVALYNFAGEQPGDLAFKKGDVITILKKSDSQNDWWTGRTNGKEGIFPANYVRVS

For assay [7], the target named is T6, Rvs167 SH3 (RV167_YEAST), P39743.
T6 chain: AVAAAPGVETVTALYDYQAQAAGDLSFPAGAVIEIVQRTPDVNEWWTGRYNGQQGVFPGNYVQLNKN

Sequence of Sho1 SH3 (SHO1_YEAST), P40073 (P40073 295-366): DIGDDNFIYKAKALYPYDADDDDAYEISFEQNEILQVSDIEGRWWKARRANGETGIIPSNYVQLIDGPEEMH

ALSTKGYPHEPPLL [YGR172C 61-74]: the normalised SPOT signal, Boehringer light units (BLU); mean over the file's lines of this peptide in assay [1] was 12.6; in assay [2], 139; in assay [3] it was 193; in assay [4], 26.8; in assay [5], 35.4; in assay [6], 15.2. Besides, the normalised SPOT signal, Boehringer light units (BLU); mean over the file's lines of this peptide in assay [7] came to 63.8.
With ASFRKTKPPPPLDF [YAL017W 81-94], the normalised SPOT signal, Boehringer light units (BLU); mean over the file's lines of this peptide turned out to be 21.6 in assay [1]; 169 in assay [2]; 1950 in assay [3]; 816 in assay [4]; 19.5 in assay [5]; 304 in assay [6]. Further, the normalised SPOT signal, Boehringer light units (BLU); mean over the file's lines of this peptide in assay [7] was 48.5.
As for AQKLKLLPEEPFQR [YDL001W 74-87], the normalised SPOT signal, Boehringer light units (BLU); mean over the file's lines of this peptide stood at 16.2 in assay [1]; 401 in assay [2]; 713 in assay [3]; 29.1 in assay [4]; 3780 in assay [5]; 3.4 in assay [6]. Besides, the normalised SPOT signal, Boehringer light units (BLU); mean over the file's lines of this peptide in assay [7] is 76.9.
For APVVKSEPSLPRMR [YJL083W 57-70], the normalised SPOT signal, Boehringer light units (BLU); mean over the file's lines of this peptide worked out at 17.7 in assay [1]; 241 in assay [2]; 1950 in assay [3]; 512 in assay [4]; 49.7 in assay [5]; 63.5 in assay [6]. Besides, the normalised SPOT signal, Boehringer light units (BLU); mean over the file's lines of this peptide in assay [7] amounted to 70.8.
Turning to ALEERFDPKSPTKR [YMR129W 520-533], the normalised SPOT signal, Boehringer light units (BLU); mean over the file's lines of this peptide in assay [1] amounted to 13.4; in assay [2], 108; in assay [3], 948; in assay [4], 4.1; in assay [5], 33.3; in assay [6], 63.6. This molecule returned a normalised SPOT signal, Boehringer light units (BLU); mean over the file's lines of this peptide in assay [7] of 56.3.
Regarding ATEAKSLPKIPSIP [YPL176C 343-356], the normalised SPOT signal, Boehringer light units (BLU); mean over the file's lines of this peptide in assay [1] worked out at 58.5; in assay [2] it was 137; in assay [3], 108; in assay [4] it was 39.5; in assay [5], 19100; in assay [6], 67.6. This molecule returned a normalised SPOT signal, Boehringer light units (BLU); mean over the file's lines of this peptide in assay [7] of 47.7.
Turning to AMESRVAPEIPGLI [YGL130W 4-17], the normalised SPOT signal, Boehringer light units (BLU); mean over the file's lines of this peptide in assay [1] stood at 0; in assay [2] it was 426; in assay [3] it was 82.6; in assay [4], 517; in assay [5], 47.7; in assay [6] it was 45.4. In assay [7], this molecule returned a normalised SPOT signal, Boehringer light units (BLU); mean over the file's lines of this peptide of 60.5.
As for APPPKEEPAAPTST [YGR162W 923-936], the normalised SPOT signal, Boehringer light units (BLU); mean over the file's lines of this peptide in assay [1] came out at 3.5; in assay [2], 117; in assay [3], 76.3; in assay [4], 5.8; in assay [5], 37.7; in assay [6], 0.6. In assay [7], this molecule displayed a normalised SPOT signal, Boehringer light units (BLU); mean over the file's lines of this peptide of 15.9.
Consider AKVNKSPPDHPYIQ [YHR094C 277-290], for which the normalised SPOT signal, Boehringer light units (BLU); mean over the file's lines of this peptide came to 20.2 in assay [1]; 164 in assay [2]; 426 in assay [3]; 39.4 in assay [4]; 32.9 in assay [5]; 18.6 in assay [6]. Besides, the normalised SPOT signal, Boehringer light units (BLU); mean over the file's lines of this peptide in assay [7] stood at 53.
As for ASKHKMFPFNPAKI [YLR115W 531-544], the normalised SPOT signal, Boehringer light units (BLU); mean over the file's lines of this peptide in assay [1] turned out to be 1.5; in assay [2], 953; in assay [3] it was 349; in assay [4] it was 214; in assay [5] it was 65.5; in assay [6] it was 16.3. This molecule yielded a normalised SPOT signal, Boehringer light units (BLU); mean over the file's lines of this peptide in assay [7] of 80.6.
As to ALWAKFFPEKPLNI [YGR024C 111-124], the normalised SPOT signal, Boehringer light units (BLU); mean over the file's lines of this peptide in assay [1] is 18.8; in assay [2] it was 154; in assay [3] it was 103; in assay [4], 405; in assay [5] it was 115; in assay [6] it was 75.9. In assay [7], this molecule yielded a normalised SPOT signal, Boehringer light units (BLU); mean over the file's lines of this peptide of 50.7.
On to ALLIKTVPGFPLLE [YGR061C 138-151], for which the normalised SPOT signal, Boehringer light units (BLU); mean over the file's lines of this peptide was 48 in assay [1]; 144 in assay [2]; 78.5 in assay [3]; 39.7 in assay [4]; 22.1 in assay [5]; 7.6 in assay [6]. Besides, in assay [7], the normalised SPOT signal, Boehringer light units (BLU); mean over the file's lines of this peptide worked out at 11.8.
Consider ATGKRKLPGWPSAD [YIL165C 34-47], for which the normalised SPOT signal, Boehringer light units (BLU); mean over the file's lines of this peptide in assay [1] worked out at 4; in assay [2], 136; in assay [3] it was 127; in assay [4] it was 3620; in assay [5] it was 52.8; in assay [6], 92.2. Moreover, the normalised SPOT signal, Boehringer light units (BLU); mean over the file's lines of this peptide in assay [7] was determined as 80.9.
As to ALLRRTIPKRPFYH [YDL142C 12-25], the normalised SPOT signal, Boehringer light units (BLU); mean over the file's lines of this peptide in assay [1] amounted to 253; in assay [2], 914; in assay [3] it was 4780; in assay [4], 7070; in assay [5] it was 34.4; in assay [6], 972. The molecule also displayed a normalised SPOT signal, Boehringer light units (BLU); mean over the file's lines of this peptide in assay [7] of 1850.
